Test results as given in patent US20200172896, “EVOLUTION OF BIOACTIVE SEQUENCE-DEFINED SYNTHETIC POLYMERS USING DNA-TEMPLATED POLYMERIZATION” (President and Fellows of Harvard College, published 2020).

Experiments:
PCSK9 [1] = biological target: T1, PCSK9 (Homo sapiens, UniProt Q8NBP7;Q8NBP7 Q8NBP7:31-152,Q8NBP7:153-692); experiment: pulldown; unfunctionalized DNA, no evident binding; conditions: tags: ACROBiosystems PC9-H5223
PCSK9 [2] = biological target: T1, PCSK9; experiment: SPR; 0.9x HBS-EP, 25 C, immobilized HFNAP; conditions: tags: ACROBiosystems PC9-H5223; label: 3' iSp18-dual biotin
Method: (§1) All SPR assays were performed at 25° C. on a Biacore X100 or Biacore T200 (GE Healthcare Life Sciences). Binding kinetics between enzymatically synthesized biotinylated HFNAPs and unlabeled recombinant proteins were measured using single-cycle kinetics with the Biotin CAPture kit (GE Life Sciences) using 0.9×HBS-EP buffer (GE Life Sciences) at a flow rate of 30 μL/min. The injected PCSK9 concentration ranged from 10 to 300 nM for PCSK9-A5 and its variants, or from 2 to 60 nM for PCSK9-Evo5 and its variants. The injected IL-6 concentration ranged from 10 to 300 nM.
(§2) All SPR assays were performed at 25° C. on a Biacore X100 or Biacore T200 (GE Healthcare Life Sciences). […] HBS-EP buffer (GE Life Sciences, BR100188), diluted by MilliQ water to 0.9×, was used as the bulk running buffer. Each experiment consisted of three start-up cycles followed by multiple data collection and blank cycles. […] Afterwards, four ascending concentrations of PCSK9 protein [10, 30, 100, 300 nM protein supplemented with 1 mg/ml salmon sperm DNA (Invitrogen, 15632-011) as nonspecific binding reducer for PCSK9-A5 and its variants; 2, 6, 20, 60 nM protein without salmon sperm DNA for PCSK9-Evo5 and its variants] in 0.9×HBS-EP were injected onto both flow cells in series at 30 μL/min for 150 seconds each, followed by 240 seconds of dissociation. […]

[3] = biological target: PCSK9 mature, lacking prodomain (Homo sapiens, UniProt Q8NBP7 Q8NBP7:153-692); experiment: SPR; no apparent binding, 2-60 nM protein; conditions: tags: ACROBiosystems PC9-H5226; label: 3' iSp18-dual biotin
PCSK9 mature, lacking prodomain, sequence (Q8NBP7 153-692, one chain of several): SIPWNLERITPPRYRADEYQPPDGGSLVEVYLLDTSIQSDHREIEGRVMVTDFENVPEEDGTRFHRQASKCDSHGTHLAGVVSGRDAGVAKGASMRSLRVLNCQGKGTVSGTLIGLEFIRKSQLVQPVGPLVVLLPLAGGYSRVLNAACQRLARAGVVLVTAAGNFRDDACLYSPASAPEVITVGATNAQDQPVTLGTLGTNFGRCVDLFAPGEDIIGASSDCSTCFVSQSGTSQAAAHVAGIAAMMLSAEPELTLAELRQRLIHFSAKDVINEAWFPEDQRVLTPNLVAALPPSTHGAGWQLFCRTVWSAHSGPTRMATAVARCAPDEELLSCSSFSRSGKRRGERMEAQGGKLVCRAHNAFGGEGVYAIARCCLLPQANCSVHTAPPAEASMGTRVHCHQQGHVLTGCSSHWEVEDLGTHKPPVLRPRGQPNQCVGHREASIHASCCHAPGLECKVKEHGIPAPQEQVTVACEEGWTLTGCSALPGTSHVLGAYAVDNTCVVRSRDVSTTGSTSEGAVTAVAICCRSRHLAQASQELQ
Method: All SPR assays were performed at 25° C. on a Biacore X100 or Biacore T200 (GE Healthcare Life Sciences). […] HBS-EP buffer (GE Life Sciences, BR100188), diluted by MilliQ water to 0.9×, was used as the bulk running buffer. Each experiment consisted of three start-up cycles followed by multiple data collection and blank cycles. […] Afterwards, four ascending concentrations of PCSK9 protein [10, 30, 100, 300 nM protein supplemented with 1 mg/ml salmon sperm DNA (Invitrogen, 15632-011) as nonspecific binding reducer for PCSK9-A5 and its variants; 2, 6, 20, 60 nM protein without salmon sperm DNA for PCSK9-Evo5 and its variants] in 0.9×HBS-EP were injected onto both flow cells in series at 30 μL/min for 150 seconds each, followed by 240 seconds of dissociation. Both flow cells were then regenerated with a 3:1 mixture of 8 M guanidinium chloride and 1 M NaOH following manufacturer's instructions. Blank cycles were run similarly except that 0.9×HBS-EP (containing 1 mg/ml salmon sperm DNA when PCSK9-A5 and its variants were assayed) without PCSK9 protein was injected.

PCSK9 [4] = biological target: T1, PCSK9; experiment: SPR; two-state reaction kinetic model; conditions: tags: ACROBiosystems PC9-H5223; label: 3' iSp18-dual biotin
Method: as §1, §2

PCSK9 [5] = biological target: T1, PCSK9; experiment: SPR; 0.9x HBS-EP, 25 C; conditions: tags: ACROBiosystems PC9-H5223; label: biotin
Method: as §1, §2

PCSK9 [6] = biological target: T1, PCSK9; experiment: inhibition; inhibition of 20 nM PCSK9 binding to immobilized LDLR by SPR; HEPES, NaCl, 0.1 mM CaCl2, pH 7.5; conditions: tags: ACROBiosystems PC9-H5223
Method: Binding of PCSK9 on surface-immobilized LDLR in the presence of various competing agents was measured on a Series S SA chip using 10 mM HEPES, 150 mM NaCl, 0.1 mM CaCl₂, 0.005% Tween-20, pH 7.5 as bulk buffer at a flow rate of 10 μL/min. The injected solutions contained 20 nM PCSK9 and various competing agents ranging from 2 to 200 nM.
Binding of PCSK9 on surface-immobilized LDLR in the presence of various competing agents was measured on a Series S SA chip. The bulk running buffer was 10 mM HEPES, 150 mM NaCl, 0.1 mM CaCl₂, 0.005% Tween-20, pH 7.5. […] The surface was regenerated using two consecutive one-minute injections of 50 mM HCl. Blank cycles were run similarly except that running buffer containing 1 mg/ml non-specific binding reducer without protein was injected. Response levels at the end of the injection periods from double-blank-subtracted sensograms were recorded.

[7] = biological target: PCSK9 (biotinylated Avi-tagged) (UniProt Q8NBP7;Q8NBP7 Q8NBP7:31-152,Q8NBP7:153-692); experiment: SPR; immobilized PCSK9, 0.9x HBS-EP, 25 C; conditions: tags: biotinylated Avi-tag, ACROBiosystems PC9-H82E7
PCSK9 (biotinylated Avi-tagged), sequence (Q8NBP7 31-152, chain 1 of 2): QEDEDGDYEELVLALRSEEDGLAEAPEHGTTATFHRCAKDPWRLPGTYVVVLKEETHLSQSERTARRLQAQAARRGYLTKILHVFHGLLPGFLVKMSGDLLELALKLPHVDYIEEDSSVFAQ
PCSK9 (biotinylated Avi-tagged), sequence (Q8NBP7 153-692, chain 2 of 2): as the sequence (Q8NBP7 153-692, one chain of several) above
From the text: Biotinylated PCSK9 in 0.9×HBS buffer was immobilized onto the active flow cell to ˜1000 RU. […] Kinetic parameters were fitted to double-blank-subtracted sensograms under a 1:1 binding model using BIAEvaluation software.

PCSK9 [8] = biological target: T1, PCSK9; experiment: SPR; 0.9x HBS-EP, salmon sperm DNA 1 mg/ml, 25 C; conditions: tags: ACROBiosystems PC9-H5223; label: 5' dual biotin-iSp18
Method: as §1, §2

T1 sequence (Q8NBP7 31-152, chain 1 of 2): as the sequence (Q8NBP7 31-152, chain 1 of 2) above
T1 sequence (Q8NBP7 153-692, chain 2 of 2): as the sequence (Q8NBP7 153-692, one chain of several) above

B1: PCSK9A3-DNA (ssDNA)
DNA: CGAATCAGATTGGACCAGTCTCTACAACCTCTTTCATGTCTTTAGCACTACTTATCCTGATCAGAGTCCAGATGTAGGTAG
PCSK9 [1]
  binding result: no binding

B2: PCSK9A6-DNA (ssDNA)
DNA: CGAATCAGATTGGACCAGTTTCAACCTCTTCTGCCTTCTCCACGGCTCCTTCTGCGTTGTTCCGAGTCCAGATGTAGGTAG
PCSK9 [1]
  binding result: no binding

B3: PCSK9-Evo5 (ssDNA)
DNA: TGCTACCGTTGTTTACCCTGCCACCTTCTGGAGTCCAGATGTAGGTAG
modifications: HFNAP, C5 side chain on 5' pyrimidine of codons TGC primary alcohol, TAC imidazole, CGT cyclopentyl, TGT phenol, TTA allylamine, CCC cyclopropyl, TGC primary alcohol, CAC isopentyl, CTT cyclopentyl, CTG cyclopentyl
PCSK9 [2]
  Kd: 3 nM
[3]
  binding result: no binding

B4: PCSK9-Evo5 CAC delta side chain (ssDNA)
DNA: TGCTACCGTTGTTTACCCTGCCACCTTCTGGAGTCCAGATGTAGGTAG
modifications: as PCSK9-Evo5 except CAC unmodified [side chains as PCSK9-Evo5 except CAC codon (nt 22-24) unmodified (isopentyl removed); base sequence unchanged]
PCSK9 [4]
  Kd: ~420 nM

## TTCTACCGTTTTTGCCCCCGGCACCTTCTGGAGTCCAGATGTAGGTAG (ssDNA, HFNAP side chains as PCSK9-A5) [PCSK9-A5Trunc]
PCSK9 [5]
  Kd: 68 nM

B5: PCSK9-Evo5 3 side chains (ssDNA)
DNA: TGCTACCGTTGTTTACCCTGCCACCTTCTGGAGTCCAGATGTAGGTAG
modifications: only three side chains: phenol at position 9, isopentyl at position 21, cyclopentyl at position 24 (so in the source); rest unfunctionalized DNA [phenol at 9, isopentyl at 21, cyclopentyl at 24 (positions as printed); all other side chains removed; base sequence unchanged]
PCSK9 [5]
  Kd: 3.7 nM

## TGCTACCGTTGTTTACCCTGCCACCTTCTGGAGTCCAGATGTAGGTAG (ssDNA, side chains as PCSK9-Evo5, 3' idT) [PCSK9-Evo5-syn]
PCSK9 [6]
  IC50: ~9 nM
[7]
  Kd: 6.8 nM

B6: PCSK9-A5 (ssDNA)
DNA: CGAATCAGATTGGACCAGCCACGTTACTGATTCTTCTACCGTTTTTGCCCCCGGCACCTTCTGGAGTCCAGATGTAGGTAG
modifications: HFNAP, C5 side chain on the 5' pyrimidine of each of the 15 codons in the variable region (19-63): CCA cyclopropyl, CGT/CTT/CTG cyclopentyl, TAC imidazole, TGA/TGC primary alcohol, TTC allylamine, TTT phenol, CCC cyclopropyl, CGG/CAC isopentyl
PCSK9 [8]
  Kd: 98 nM

B7: PCSK9A2-DNA (ssDNA)
DNA: CGAATCAGATTGGACCAGCAACAATGATTCTTCTACCGTTTTTGCCCTCACCTTCTGCGCTGAGAGTCCAGATGTAGGTAG
PCSK9 [1]
  binding result: no binding

B8: PCSK9A7-DNA (ssDNA)
DNA: CGAATCAGATTGGACCAGTCTTCCCTATTCCTCTACCGTTTGTTCTCTTACTTTCACCTTCTGGAGTCCAGATGTAGGTAG
PCSK9 [1]
  binding result: no binding

B9: PCSK9A4-DNA (ssDNA)
DNA: CGAATCAGATTGGACCAGCCCCAATGCTTTTCGTTTCTATCACGTCTTTAGCGGTACCTATTCGAGTCCAGATGTAGGTAG
PCSK9 [1]
  binding result: no binding

B10: PCSK9A1-DNA (ssDNA)
DNA: CGAATCAGATTGGACCAGCCACTATATTCTCTCTCCTACCGTTTGCCTTTGCATCACCTTCTGGAGTCCAGATGTAGGTAG
PCSK9 [1]
  binding result: no binding
